Drawing on paper PMC2667502 (2009), this text covers Kd for 1 molecule.

By Kd is commonly meant a measure of binding affinity in units of concentration.

The assay concerns the target TrkB/P75NTR complex (Mus musculus, UniProt P15209). Briefly: dose-response of neuronal survival in ventral midbrain cultures.

TrkB/P75NTR complex, sequence (P15209 32-821, chain 1 of 2): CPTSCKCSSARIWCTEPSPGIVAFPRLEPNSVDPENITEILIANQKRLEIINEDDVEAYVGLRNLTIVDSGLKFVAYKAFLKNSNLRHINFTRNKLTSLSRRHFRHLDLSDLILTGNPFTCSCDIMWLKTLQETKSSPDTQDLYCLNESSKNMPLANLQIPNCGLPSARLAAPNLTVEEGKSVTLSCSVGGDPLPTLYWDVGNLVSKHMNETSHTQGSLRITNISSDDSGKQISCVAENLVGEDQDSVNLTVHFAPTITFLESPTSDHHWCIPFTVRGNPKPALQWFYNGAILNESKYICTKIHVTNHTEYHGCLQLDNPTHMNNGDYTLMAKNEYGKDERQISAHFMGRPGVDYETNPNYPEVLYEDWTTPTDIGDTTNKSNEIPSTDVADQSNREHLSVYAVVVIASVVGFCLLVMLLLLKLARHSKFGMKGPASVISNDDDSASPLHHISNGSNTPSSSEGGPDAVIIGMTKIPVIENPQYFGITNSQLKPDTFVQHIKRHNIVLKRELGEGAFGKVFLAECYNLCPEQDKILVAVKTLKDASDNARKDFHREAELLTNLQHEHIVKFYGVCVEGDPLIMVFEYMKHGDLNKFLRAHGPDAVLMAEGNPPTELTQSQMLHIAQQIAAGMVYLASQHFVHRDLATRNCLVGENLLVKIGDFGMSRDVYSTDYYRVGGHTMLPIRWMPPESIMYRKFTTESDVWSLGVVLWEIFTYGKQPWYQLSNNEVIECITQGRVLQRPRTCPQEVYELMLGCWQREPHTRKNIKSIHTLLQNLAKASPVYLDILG
TrkB/P75NTR complex, sequence (chain, as listed by the source, chain 2 of 2): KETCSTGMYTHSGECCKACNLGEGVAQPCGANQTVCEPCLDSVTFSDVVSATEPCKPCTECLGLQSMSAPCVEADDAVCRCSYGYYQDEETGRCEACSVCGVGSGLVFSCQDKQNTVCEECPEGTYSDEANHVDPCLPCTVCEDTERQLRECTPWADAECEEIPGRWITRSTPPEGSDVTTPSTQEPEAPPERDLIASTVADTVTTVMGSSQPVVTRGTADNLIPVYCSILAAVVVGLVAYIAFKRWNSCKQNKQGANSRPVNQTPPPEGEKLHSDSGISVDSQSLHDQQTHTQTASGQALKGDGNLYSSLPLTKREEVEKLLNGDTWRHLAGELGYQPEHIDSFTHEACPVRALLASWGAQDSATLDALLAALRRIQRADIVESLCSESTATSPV

B1: BDNF (protein)
chain: HSDPARRGELSVCDSISEWVTAADKKTAVDMSGGTVTVLEKVPVSKGQLKQYFYETKCNPMGYTKEGCRGIDKRHWNSQCRTTQSYVRALTMDSKKRIGWRFIRIDTSCVCTLTIKRGR
Take B1: the Kd was approximately 2.5 nM.
